Reference: the RNAGym collection of RNA variant scans (doi:10.1073/pnas.2313332121)

B1: TPR t1 (parent)
chain: GACCAAUCUGCCCUCAGAGCUCGAGAACAUCUUCGGAUGCAGAGGAGGCAGGCUUCGGUGGCGCGAUAGCGCCAACGUCCUCAACCUCCAAUGCAUCCCACCACAUGAUGAUGCCUGAAGAGCCUUGGUUUUUUG

Variants of: B1
Experiment: polymerase ribozyme fitness, log enrichment relative to wild type (log ratio); higher = more active; in vitro selection for triplet polymerase activity
Outline: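 Streptavidin-bead capture of gel-excised extended constructs, followed by RT-PCR, closed a single triplicate in vitro selection round. That round began by annealing PCR-built, transcribed mutant libraries of each subunit of a heterodimeric triplet polymerase ribozyme with a biotinylated primer, the partner subunit and triplets, then incubating them frozen at −7 °C. After Illumina sequencing of inputs and outputs, genotypes needed ≥10 input reads and ≥1 read per output. Fitness is the base-2 logarithm of genotype enrichment over wild-type enrichment, using inverse-variance-weighted replicate averages.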

Variant	polymerase ribozyme fitness (log ratio)
G69U C86G	0.0893
G42C G44C U81C G120A	-2.45
C13G U81C	-1.96
U9A C13G A46G G107C G135U	-7.09
C20G C53A G57U A91C A95G U109G	-3.11
C85G G110A U126C	-2.99
C15G G60C U130C	-1.49
U81G U130A	-3.23
G47A U55A	-0.45
G10C C20A	-3.95
G69C G135U	-2.29
U9G C22G C101A C115U	-3.13
A46G C53A	-0.35
C53G C102A	-2.97
G42C A43C C115A	-1.55
G69U C82G C89A	-1.32
G45A C80A C115A	-3.93
C49A U54A C56U U112C	1.59
U9A C13U C79U C114A	0.44
G25A C40U G69C G93C C101U C104G C115U A118G	-7.63
G45U C86U U87A C124U U130C	-1.19

Variant	polymerase ribozyme fitness (log ratio)
A2G U14A C62A	-3.69
C115U G128U	-4.06
G61A U92C	-0.505
C22G U132A	-3.21
C72A A118U	0.818
C8G U55A	0.0363
C72U C88A C101A	-1.43
A41G G48A	-1.31
G63C G117A	-1.45
C3U G69U C94G C114A U125A	-3.19
C4G U32A G71U A121C U129A	-4.53
G60C A103U	-5.01
A74C U78G C80U C115A	-2.23
C22U G48U G71U C94A	-6.57
U78A C115G	-2.13
C12A A18C	-1.6
G36U C40U A121U G122C	-0.484
A43U G57C C98U U126A	-4.59
C13A C40A	-2.4
G61C C101G U112C	-2.46
G39A C73A G93U	-2.29

Variant	polymerase ribozyme fitness (log ratio)
C20U C123A	-0.867
C49G U109C	-4.72
C11G C15A U106A G117U G127U	-0.216
G44U U59C G110A G127A U132A	-4.19
C13U G39A G58U C79G C97U	-2.64
C4U C72A	-0.193
A6C A50C G127A G128U	-3.5
A16G G52A C56A G69U	-1.69
C49G G63U	-2.09
C8G U9G C73G C123A	1.1
C8U C13U A37C C70U A119G	-0.292
C72U C82G G110U	-2.93
C12A G60A G110U G122A U132A	-3.16
U59C A91G U133G	-2.51
U78G U130G	-0.347
C8G G58A U96A	0.339
G61A U106G C114U	-3.24
C72G C82A C85A A95U	-4.18
A43C G51U C82G A121U	-6.24
C11U C64U	-0.331
C53U G57U A121C	1.4

Variant	polymerase ribozyme fitness (log ratio)
G61C C86A	-2.15
C73U G127U	-0.489
C73U G127C	-0.681
U14C C40G C49G	-3.41
A84C	-0.112
C56G U129C	-0.877
A6U C8A G44U G107A U112A	-6.05
U55G	0.0266
A6C G63U	-1.03
C13U U30C C56U A121C U130G	-1.57
C73A U87G	-0.467
G36C C40A	-1.42
C28G G107C U109G	-6.09
G63A C124G	0.684
A46U C49U C72A A121C	0.996
C8A C56G	0.28
A5U C56A	-0.829
C73U C86G C115G U129A	-5.03
A74G G77U C123U	0.945
A2U G57U G117U	-5.98
